Reference: PMC4960319, “The anti-sigma factor RsrA responds to oxidative stress by reburying its hydrophobic core” (Nature Communications, 2016)
“And” between values parts separate entries of the source, which are not always exact repeats. Equal entries are not always repeated. Values belong to the binder of their own block, whether it stands above or below them.

Key:
Conditions in all cases: both partners purified
[1] = biological target: T1, σR Trp88Ile Trp119Ile (Streptomyces coelicolor, UniProt Q7AKG9 5-227, Trp88Ile | Trp119Ile); experiment: ITC; competition ITC as for the wild-type complex (Figure 3a): RsrAred.Zn2+ (100 μM) titrated into σR (10 μM, cell) in the presence of 50 μM weak competitor RsrA* Cys11Ser Cys44Ser; 35 °C, 50 mM Tris pH 7.5, 100 mM NaCl, 2 mM DTT
T1 construct: ECF sigma factor σR (SigR) of Streptomyces coelicolor; mutant of the tagless construct of residues 5-227 (all σR mutants were similarly purified); The limits are those of the wild-type construct; source: E. coli BL21(DE3), purified as wild-type σR

[2] = biological target: T2, σR (residues 5-227) (Streptomyces coelicolor, UniProt Q7AKG9 5-227); experiment: stopped-flow tryptophan fluorescence; 25 °C, with zinc; kon: pseudo-first-order, σR 125 nM, RsrA 1.25-2.5 μM; koff: 2.5 μM complex displaced with 25 μM σR Trp88Ile Trp119Ile; Kd = koff/kon; 50 mM Tris pH 7.5, 100 mM NaCl, 2 mM DTT
T2 construct: ECF sigma factor σR (SigR) of Streptomyces coelicolor; residues 5-227 subcloned into pET21a with a C-terminal stop codon for tagless expression; also called sigma factor σR; SigR; source: E. coli BL21(DE3), purified without tags (ammonium sulfate precipitation, Q-Sepharose, Hi-Load S75)

[3] = biological target: T2, σR (residues 5-227); experiment: stopped-flow tryptophan fluorescence; 35 °C, with zinc; kon: pseudo-first-order, σR 125 nM, RsrA 1.25-2.5 μM; koff: 2.5 μM complex displaced with 25 μM σR Trp88Ile Trp119Ile; Kd = koff/kon; 50 mM Tris pH 7.5, 100 mM NaCl, 2 mM DTT
[4] = biological target: T2, σR (residues 5-227); experiment: stopped-flow tryptophan fluorescence; 25 °C, without zinc (EDTA-treated RsrA); kon: pseudo-first-order, σR 125 nM, RsrA 1.25-2.5 μM; koff: 2.5 μM complex displaced with 25 μM σR Trp88Ile Trp119Ile; Kd = koff/kon; 50 mM Tris pH 7.5, 100 mM NaCl, 2 mM DTT
[5] = biological target: T2, σR (residues 5-227); experiment: stopped-flow tryptophan fluorescence; 35 °C, without zinc (EDTA-treated RsrA); kon: pseudo-first-order, σR 125 nM, RsrA 1.25-2.5 μM; koff: 2.5 μM complex displaced with 25 μM σR Trp88Ile Trp119Ile; Kd = koff/kon; 50 mM Tris pH 7.5, 100 mM NaCl, 2 mM DTT
[6] = biological target: T3, σ^R (sigma factor SigR) from Streptomyces coelicolor, residues 5-227, tagless (Streptomyces coelicolor, UniProt Q7AKG9 5-227); experiment: ITC; direct titration in the absence of zinc: RsrA^red (100 μM), σ^R (10 μM); 35 °C, 50 mM Tris pH 7.5, 100 mM NaCl, 2 mM DTT; single site model
T3 construct: ECF sigma factor σ^R (SigR) of Streptomyces coelicolor, residues 5-227 subcloned into pET21a (NdeI, BamHI) with a C-terminal stop codon; also called wild-type σ^R; source: E. coli BL21(DE3), pET21a, purified without tags (ammonium sulfate, Q-Sepharose, Hi-Load S75)

[7] = biological target: T3, σ^R (sigma factor SigR) from …; experiment: ITC; competition ITC: RsrA^red.Zn^2+ (100 μM) titrated into σ^R (10 μM) with 50 μM weak-binding RsrA mutant in the cell; 35 °C, 50 mM Tris pH 7.5, 100 mM NaCl, 2 mM DTT; competitive binding model
[8] = biological target: T3, σ^R (sigma factor SigR) from …; experiment: stopped-flow tryptophan fluorescence; dissociation by competition, with zinc: 2.5 μM complex mixed with 25 μM σ^R Trp88Ile Trp119Ile (10-fold excess); 25 or 35 °C, 50 mM Tris pH 7.5, 100 mM NaCl
[9] = biological target: T3, σ^R (sigma factor SigR) from …; experiment: stopped-flow tryptophan fluorescence; dissociation by competition, without zinc (apo-RsrA): 2.5 μM complex mixed with 25 μM σ^R Trp88Ile Trp119Ile (10-fold excess); 25 °C, 50 mM Tris pH 7.5, 100 mM NaCl
[10] = biological target: T4, σ^R Trp88Ile Trp119Ile (Streptomyces coelicolor, UniProt Q7AKG9 5-227, Trp88Ile | Trp119Ile); experiment: stopped-flow tryptophan fluorescence; dissociation by competition, with zinc: 2.5 μM complex mixed with 25 μM σ^R Trp88Ile Trp119Ile (10-fold excess); 25 or 35 °C, 50 mM Tris pH 7.5, 100 mM NaCl
T4 construct: ECF sigma factor σ^R (SigR) of Streptomyces coelicolor; both tryptophans replaced; The limits 5-227 are those stated for the tagless wild-type construct; source: E. coli BL21(DE3), purified as wild-type σ^R ("All σ^R mutants were similarly purified")

[11] = biological target: T2, σR (residues 5-227); experiment: ITC; with zinc (+), RsrA preincubated with 1 mM ZnCl2 and buffer exchanged; direct titration for weaker binding mutants (methods: 10 μM RsrA in the cell, 100 μM σR in the syringe); 35 °C, 50 mM Tris pH 7.5, 100 mM NaCl, 2 mM DTT; single binding site model

B1: RsrA wild type (natural protein, Streptomyces coelicolor, UniProt Q7AKG8 1-105, looked up)
chain: MSCGEPHETDCSEILDHLYEFLDKEMPDSDCVKFEHHFEECSPCLEKYGLEQAVKKLVKRCCGQDDVPGDLRAKVMGRLDLIRSGQSVPEHDVAAAPSSSAPQES
notes: Reduced protein; used with one equivalent of zinc or after EDTA treatment without zinc (told by the assay); also called RsrAred.Zn2+ (with one zinc); RsrAred (without zinc); source: E. coli BL21(DE3) pLysS, purified by a His-tag that was removed by thrombin; not shown: His tag, N-terminal, cleaved
Kd [1]: 0.173 nM
stoichiometry N [1]: 1.17
Kd [2]: 0.13 nM
koff [2]: 0.00071 s⁻¹
kon [2]: 5.4e+06 M⁻¹ s⁻¹
Kd [3]: 0.27 nM
koff [3]: 0.0024 s⁻¹
kon [3]: 8.9e+06 M⁻¹ s⁻¹
Kd [4]: 24.9 nM
koff [4]: 0.286 s⁻¹
kon [4]: 1.15e+07 M⁻¹ s⁻¹
Kd [5]: 62.4 nM
koff [5]: 1.08 s⁻¹
kon [5]: 1.73e+07 M⁻¹ s⁻¹

B2: RsrA (wild type), anti-sigma factor from Streptomyces coelicolor (natural protein, UniProt Q7AKG8 1-105, looked up)
chain: MSCGEPHETDCSEILDHLYEFLDKEMPDSDCVKFEHHFEECSPCLEKYGLEQAVKKLVKRCCGQDDVPGDLRAKVMGRLDLIRSGQSVPEHDVAAAPSSSAPQES
notes: Used reduced with one zinc ion at the ZAS motif (RsrA^red.Zn^2+) or reduced without zinc (EDTA-treated); the assay tells which; also called RsrA^red.Zn^2+; RsrA^red; source: E. coli BL21(DE3) pLysS, purified using a His-tag that was removed by thrombin cleavage; not shown: His-tag, N-terminal, cleaved
Kd [6]: 79.3 ± 4.2 nM
dH [6]: -16.26 ± 0.13 kcal/mol
stoichiometry N [6]: 0.97 ± 0.004
Kd [7]: 0.78 nM and ~0.7 nM
dH [7]: -23.1 kcal/mol
stoichiometry N [7]: 1.01
fold, kinetically derived Kd at 25 °C lower than at 35 °C [8]: ~2 fold
fold increase of koff without zinc against with zinc [9]: 400 fold
koff [9]: ~0.3 s⁻¹

B6: RsrA* C11H C41H C44H (natural protein, Streptomyces coelicolor, UniProt Q7AKG8 1-105, looked up)
chain: MSAGEPHETDHSEILDHLYEFLDKEMPDSDAVKFEHHFEEHSPHLEKYGLEQAVKKLVKRAAGQDDVPGDLRAKVMGRLDLIRSGQSVPEHDVAAAPSSSAPQES
notes: also called RsrA* Cys11His Cys41His Cys44His; source: E. coli BL21(DE3) pLysS, purified by a His-tag that was removed by thrombin; not shown: His tag, N-terminal, cleaved
Kd [11]: 305 nM

B7: RsrA* C11S C41S (natural protein, Streptomyces coelicolor, UniProt Q7AKG8 1-105, looked up)
chain: MSAGEPHETDSSEILDHLYEFLDKEMPDSDAVKFEHHFEESSPCLEKYGLEQAVKKLVKRAAGQDDVPGDLRAKVMGRLDLIRSGQSVPEHDVAAAPSSSAPQES
notes: source: E. coli BL21(DE3) pLysS, purified by a His-tag that was removed by thrombin; not shown: His tag, N-terminal, cleaved
Kd [11]: 240 nM

B8: RsrA* C11S (natural protein, Streptomyces coelicolor, UniProt Q7AKG8 1-105, looked up)
chain: MSAGEPHETDSSEILDHLYEFLDKEMPDSDAVKFEHHFEECSPCLEKYGLEQAVKKLVKRAAGQDDVPGDLRAKVMGRLDLIRSGQSVPEHDVAAAPSSSAPQES
notes: as for B7
Kd [11]: 79 nM

Results, then the binder that gave them:

binding result [10]: binds
koff [8]: 0.0027 s⁻¹
B3: RsrA* (RsrA with Cys3, Cys31, Cys61 and Cys62 mutated to alanine) (natural protein, Streptomyces coelicolor, UniProt Q7AKG8 1-105, looked up)
chain: MSAGEPHETDCSEILDHLYEFLDKEMPDSDAVKFEHHFEECSPCLEKYGLEQAVKKLVKRAAGQDDVPGDLRAKVMGRLDLIRSGQSVPEHDVAAAPSSSAPQES
notes: the four non-essential cysteines mutated to alanine; also called RsrA*^red.Zn^2+; source: E. coli BL21(DE3) pLysS, purified using a His-tag that was removed by thrombin cleavage; not shown: His-tag, N-terminal, cleaved

binding result [10]: binds
koff [8]: 0.064 s⁻¹
B4: RsrA* Cys11His (natural protein, Streptomyces coelicolor, UniProt Q7AKG8 1-105, looked up)
chain: MSAGEPHETDHSEILDHLYEFLDKEMPDSDAVKFEHHFEECSPCLEKYGLEQAVKKLVKRAAGQDDVPGDLRAKVMGRLDLIRSGQSVPEHDVAAAPSSSAPQES
notes: The complex with σ^R analysed by native MS has a theoretical mass of 40,128.08 Da, which may mean that tags were present in that sample; also called RsrA*^red.Zn^2+ Cys11His; source: E. coli BL21(DE3) pLysS, purified using a His-tag that was removed by thrombin cleavage; not shown: His-tag, N-terminal, cleaved

binding result [10]: binds
koff [8]: ~2.3 s⁻¹
B5: RsrA* Cys11His Cys41His Cys44His (natural protein, Streptomyces coelicolor, UniProt Q7AKG8 1-105, looked up)
chain: MSAGEPHETDHSEILDHLYEFLDKEMPDSDAVKFEHHFEEHSPHLEKYGLEQAVKKLVKRAAGQDDVPGDLRAKVMGRLDLIRSGQSVPEHDVAAAPSSSAPQES
notes: Non-oxidative control; also called triple mutant; RsrA*^red.Zn^2+ Cys11His Cys41His Cys44His; source: E. coli BL21(DE3) pLysS, purified using a His-tag that was removed by thrombin cleavage; not shown: His-tag, N-terminal, cleaved
